{"source": "patent US20140348865A1", "about": "“[…] ON AN HIV-1 V1V2 SITE-OF-VULNERABILITY” (The United States of America, as represented by the …, priority 2011, published 2014)", "key": {"[1]": {"molecular_target": "gp120 of HIV-1 strain AD244, full length (HIV-1)", "assay": "SPR, gp120 amine-coupled, Fab injected"}, "[2]": {"molecular_target": "V3 loop-deleted gp120 of HIV-1 strain 16055 (HIV-1)", "assay": "SPR, heterogeneous ligand model, component 1, 46.9%"}, "[3]": {"molecular_target": "gp120 of HIV-1 strain 16055, full length (HIV-1)", "assay": "SPR, heterogeneous ligand model, component 1, 66.0%"}, "[4]": {"molecular_target": "V3 loop-deleted gp120 of HIV-1 strain AD244 (HIV-1)", "assay": "SPR, heterogeneous ligand model, component 1, 84.5%"}, "[5]": {"molecular_target": "V3 loop-deleted gp120 of HIV-1 strain AD244 (HIV-1)", "assay": "SPR, heterogeneous ligand model, component 2, 15.5%"}, "[6]": {"molecular_target": "gp120 of HIV-1 strain 16055, full length (HIV-1)", "assay": "SPR, heterogeneous ligand model, component 2, 34.0%"}, "[7]": {"molecular_target": "V3 loop-deleted gp120 of HIV-1 strain 16055 (HIV-1)", "assay": "SPR, heterogeneous ligand model, component 2, 53.1%"}, "[8]": {"molecular_target": "CAP45 154-177 glycopeptide with Man5GlcNAc2 at N160 and a complex glycan at N156", "assay": "SPR, Fab injected over biotinylated glycopeptide on a streptavidin chip"}, "[9]": {"molecular_target": "ZM109 154-177 glycopeptide with Man5GlcNAc2 at N160 and a complex glycan at N173", "assay": "SPR, Fab injected over biotinylated glycopeptide on a streptavidin chip"}, "monomeric gp120": {"molecular_target": "monomeric gp120", "assay": "FIG. 11; method not given"}, "1FD6-ZM109 V1V2 scaffold [10]": {"molecular_target": "1FD6-ZM109 V1V2 scaffold"}, "[11]": {"molecular_target": "linked dimer of the gp120 V1/V2 domain with truncated V1 and V2 variable loops"}, "Linked-Dimer ZM109": {"molecular_target": "Linked-Dimer ZM109", "assay": "SPR"}, "Linked-Dimer Cap45": {"molecular_target": "Linked-Dimer Cap45", "assay": "SPR, sensorgram box labelled PG9 Fab"}, "1FD6-ZM109 V1V2 scaffold [12]": {"molecular_target": "1FD6-ZM109 V1V2 scaffold", "assay": "SPR, scaffold immobilized, PG9 Fab injected"}, "1JO8-ZM109 V1V2 scaffold [13]": {"molecular_target": "1JO8-ZM109 V1V2 scaffold", "assay": "SPR, scaffold immobilized, PG9 Fab injected"}, "[14]": {"molecular_target": "V3 loop-deleted gp120 of HIV-1 strain 16055 (HIV-1)", "assay": "SPR, gp120 amine-coupled, Fab injected"}, "[15]": {"molecular_target": "V3 loop-deleted gp120 of HIV-1 strain AD244 (HIV-1)", "assay": "SPR, gp120 amine-coupled, Fab injected"}, "[16]": {"molecular_target": "gp120 of HIV-1 strain 16055, full length (HIV-1)", "assay": "SPR, gp120 amine-coupled, Fab injected"}, "Linked-Dimer A244": {"molecular_target": "Linked-Dimer A244", "assay": "SPR, sensorgram box labelled Flowcell 2: PG9 Fab"}, "1JO8-ZM109 V1V2 scaffold [17]": {"molecular_target": "1JO8-ZM109 V1V2 scaffold", "assay": "SPR, antigen amine-coupled, Fab injected, 1:1 Langmuir"}, "[18]": {"molecular_target": "gp120 of HIV-1 strain ZM109 (HIV-1)", "assay": "SPR, antigen amine-coupled, Fab injected, 1:1 Langmuir"}, "[19]": {"molecular_target": "CAP45 154-177 glycopeptide with Man5GlcNAc2 at N160 only", "assay": "SPR, Fab injected over biotinylated glycopeptide on a streptavidin chip"}, "[20]": {"molecular_target": "Cap45 154-177 glycopeptide with Man5GlcNAc2 at N156 and Man5GlcNAc2 at N160", "assay": "SPR, Fab injected over biotinylated glycopeptide on a streptavidin chip"}, "[21]": {"molecular_target": "ZM109 154-177 glycopeptide with Man5GlcNAc2 at N160 and Man5GlcNAc2 at N173", "assay": "SPR, Fab injected over biotinylated glycopeptide on a streptavidin chip"}, "[22]": {"molecular_target": "ZM109 154-177 glycopeptide with Man5GlcNAc2 at N160 only", "assay": "SPR, Fab injected over biotinylated glycopeptide on a streptavidin chip"}}, "note": "Several values for one entry are separate records, joined by “and”; a condition that tells them apart may be missing. Equal values may be shown once.", "data": [{"substance": "PG16 Fab", "values": [{"measurement": "Kd", "setting": "[1]", "result": 4920, "unit": "nM"}, {"measurement": "Kd", "setting": "[2]", "result": 2070, "unit": "nM"}, {"measurement": "Kd", "setting": "[3]", "result": 370, "unit": "nM"}, {"measurement": "Kd", "setting": "[4]", "result": 3370, "unit": "nM"}, {"measurement": "Kd", "setting": "[5]", "result": 42.3, "unit": "nM"}, {"measurement": "Kd", "setting": "[6]", "result": 399, "unit": "nM"}, {"measurement": "Kd", "setting": "[7]", "result": 6130, "unit": "nM"}, {"measurement": "Kd", "setting": "[8]", "result": 32000, "unit": "nM"}, {"measurement": "Kd", "setting": "[9]", "result": 20000, "unit": "nM"}]}, {"substance": "Hypersulfated PG9 Fab (co-expressed with TPST-1)", "values": [{"measurement": "fold increase of affinity by sulfation", "setting": "monomeric gp120", "result": 10, "unit": "fold"}]}, {"substance": "PG9 Fab", "values": [{"measurement": "Kd", "setting": "1FD6-ZM109 V1V2 scaffold [10]", "result": "3980 nM and 5670 nM"}, {"measurement": "Kd", "setting": "[11]", "result": 1700, "unit": "nM"}, {"measurement": "Kd", "setting": "Linked-Dimer ZM109", "result": 1610, "unit": "nM"}, {"measurement": "Kd", "setting": "Linked-Dimer Cap45", "result": 590, "unit": "nM"}, {"measurement": "fold lower affinity than for wild-type ZM109 gp120", "setting": "1FD6-ZM109 V1V2 scaffold [12]", "result": 50, "unit": "fold"}, {"measurement": "fold lower affinity than for wild-type ZM109 gp120", "setting": "1JO8-ZM109 V1V2 scaffold [13]", "result": 3, "unit": "fold"}, {"measurement": "Kd", "setting": "[14]", "result": 70.9, "unit": "nM"}, {"measurement": "Kd", "setting": "[15]", "result": 102, "unit": "nM"}, {"measurement": "Kd", "setting": "[16]", "result": 49, "unit": "nM"}, {"measurement": "Kd", "setting": "[1]", "result": 44, "unit": "nM"}, {"measurement": "Kd", "setting": "Linked-Dimer A244", "result": 1800, "unit": "nM"}, {"measurement": "Kd", "setting": "1JO8-ZM109 V1V2 scaffold [17]", "result": 318, "unit": "nM"}, {"measurement": "koff", "setting": "1JO8-ZM109 V1V2 scaffold [17]", "result": 0.00253, "unit": "s⁻¹"}, {"measurement": "kon", "setting": "1JO8-ZM109 V1V2 scaffold [17]", "result": 7960, "unit": "M⁻¹ s⁻¹"}, {"measurement": "Kd", "setting": "[18]", "result": 96.8, "unit": "nM"}, {"measurement": "koff", "setting": "[18]", "result": 0.00285, "unit": "s⁻¹"}, {"measurement": "kon", "setting": "[18]", "result": 29500, "unit": "M⁻¹ s⁻¹"}, {"measurement": "Kd", "setting": "[8]", "result": 5700, "unit": "nM"}, {"measurement": "Kd", "setting": "[19]", "result": 50000, "unit": "nM"}, {"measurement": "Kd", "setting": "[20]", "result": 45000, "unit": "nM"}, {"measurement": "Kd", "setting": "[21]", "result": 97000, "unit": "nM"}, {"measurement": "Kd", "setting": "[9]", "result": 5000, "unit": "nM"}, {"measurement": "Kd", "setting": "[22]", "result": 97000, "unit": "nM"}]}]}
